Data from patent publication US20250304707A1 (JOINT STOCK COMPANY BIOCAD, published 2025).

Key:
[1] = biological target: T1, human BCMA (soluble analyte of Examples 8 and 14) (human, UniProt Q02223 1-54, limits assumed); test: BLI competition, APRIL/TNFSF13 (competitor) on AR2G sensors, premix 710 nM antibody + 71 nM human BCMA; without antibody 0.6588 nm
T1 sequence (looked up): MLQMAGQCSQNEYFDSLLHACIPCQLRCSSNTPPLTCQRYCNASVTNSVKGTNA

[2] = biological target: T2, human BCMA on the surface of RPMI8226 cells (human, UniProt Q02223 1-184); test: flow cytometry on RPMI8226 (BCMA+) cells, anti-human Fc-PE, one antibody concentration (not given)
T2 construct: whole, on cells; also called BCMA receptor; RPMI8226 (BCMA+)
T2 sequence (looked up): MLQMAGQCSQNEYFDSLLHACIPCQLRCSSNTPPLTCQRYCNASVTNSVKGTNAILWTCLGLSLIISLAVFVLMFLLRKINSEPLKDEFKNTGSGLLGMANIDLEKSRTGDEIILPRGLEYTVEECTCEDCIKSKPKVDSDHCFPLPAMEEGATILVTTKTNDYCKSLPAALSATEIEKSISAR

B1: Antibody 01-001 (antibody, human IgG1, kappa, L234A L235A, V domains shown)
VH: EVQLVQSGGGLVQPGGSLRLSCAVSGFTLSSSAMSWVRQAPGKGFEWVSGYNGGSDRAGFADSVEGRFTISRDNAKNTLYLQMNSLKPEDTAVYYCARYIANSGTYYWDYWGQGTLVTVSS
VL: QPVLTQPPSASGTPGQRVTISCSGSSSNIGSNTVNWYQQLPGTAPKLLIYNDSQRPSGVPDQFSGSKSGTSASLAISGLQSDNEADYYCAAWDGSLNVWMFGGGTKVTVLR
notes: Full-length human IgG1 with L234A/L235A (pEE-HCLALA IgG1 vector) and CK light chain constant domain (pEE-CK), made in CHO-T cells; also called candidate 01
For B1, the “Response (premix of antibody and BCMA on APRIL sensors)” value (“Response” for short) [1] was -0.0081 nm and the “Fluorescent signal level (sample/background)” value [2] was 10.7.

B2: Antibody 01-021 (antibody, human IgG1, kappa, L234A L235A, V domains shown)
VH: QVQLVQSGGGLVQPGGSLRLSCAASGFTFSSGLMSWVRQAPGKGFEWVSGYNGGSDRAGFADSVEGRFTISRDNAKNTLYLQMNSLKPEDTAVYYCARYIANSGTYYWDYWGQGTLVTVSS
VL: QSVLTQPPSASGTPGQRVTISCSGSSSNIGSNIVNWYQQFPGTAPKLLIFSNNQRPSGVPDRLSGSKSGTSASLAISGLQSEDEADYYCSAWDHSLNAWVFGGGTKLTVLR
notes: Full-length human IgG1 with L234A/L235A (pEE-HCLALA IgG1 vector) and CK light chain constant domain (pEE-CK), made in CHO-T cells; also called candidate 021
In the case of B2, the “Response” value [1] is reported as -0.0015 nm and the “Fluorescent signal level (sample/background)” value [2] is reported as 9.99.

B3: Antibody 01-016 (antibody, human IgG1, kappa, L234A L235A, V domains shown)
VH: EVQLVQSGGGLVQPGGSLRLSCAVSGFTFSSSVMSWVRQAPGKGFEWVSGYNGGSDRAGFADSVEGRFTISRDNAKNTLYLQMNSLKPEDTAVYYCARYIANSGTYYWDYWGQGTLVTVSS
VL: QPVLTQPPSVSEAPRQRVTISCSGSSSNIGNNAVNWYQQLPGKAPKLLIFKNNQRPSGVPDRFSGSKSGTSASLVISGLQSEDEADYYCAAWDGSLNAWMFGGGTKLTVLR
notes: Full-length human IgG1 with L234A/L235A (pEE-HCLALA IgG1 vector) and CK light chain constant domain (pEE-CK), made in CHO-T cells; also called candidate 016
B3 was tested, and the “Response” value [1] was -0.0062 nm and the “Fluorescent signal level (sample/background)” value [2] was 7.87.

B4: Antibody 01-037 (antibody, human IgG1, kappa, L234A L235A, V domains shown)
VH: EVQLVQSGGGLVQSGGSLRVSCAASGFTFSSGLMSWVRQAPGKGFEWVSGYNGGSDRAGYTDSVKGRFTISRDNAKNTLYLQMNSLKPEDTAVYYCARYIANSGTYYWDYWGQGTTVTVSS
VL: SYVLTQPPSASGTPGQRVTISCSGTRSNIGTNTVNWYQQLPGTAPKLLIYRNNQRPSGVPDRFSGSKSGTSASLAISGLQSEDEADYYCAVWDDRVSAWLFGGGTKLTVLR
notes: Full-length human IgG1 with L234A/L235A (pEE-HCLALA IgG1 vector) and CK light chain constant domain (pEE-CK), made in CHO-T cells; also called candidate 037
B4 was tested, and the “Response” value [1] was 0.0304 nm and the “Fluorescent signal level (sample/background)” value [2] was 11.7.

B5: Antibody 01-026 (antibody, human IgG1, kappa, L234A L235A, V domains shown)
VH: EVQLVQSGGGLVQSGGSLRVSCAASGFTFSSGLMSWVRQAPGKGFEWVSGYNGGSDRAGYTDSVKGRFTISRDNAKNTLYLQMNSLKPEDTAVYYCARYIANSGTYYWDYWGQGTTVTVSS
VL: QSVLTQPPSVSGAPGQRVTISCTGSSSNIGAGYDVHWYQQLPGTAPKLVIYGNTNRPSGVPDRFSGSKSGTSASLAISGLQSEDEADYYCAAWDDSLNGWVFGGGTKLTVLR
notes: Full-length human IgG1 with L234A/L235A (pEE-HCLALA IgG1 vector) and CK light chain constant domain (pEE-CK), made in CHO-T cells; also called candidate 026
B5 was tested, and the “Response” value [1] was 0.0111 nm and the “Fluorescent signal level (sample/background)” value [2] was 12.1.

B6: Antibody 01-027 (antibody, human IgG1, kappa, L234A L235A, V domains shown)
VH: EVQLVQSGGGLVQSGGSLRVSCAASGFTFSSGLMSWVRQAPGKGFEWVSGYNGGSDRAGYTDSVKGRFTISRDNAKNTLYLQMNSLKPEDTAVYYCARYIANSGTYYWDYWGQGTTVTVSS
VL: QAVLTQPPSASGTPGQRVSISCSGGISNIGSNIVNWYQHLPGTAPKLLIYSGNQRPSGVPDRFSGSKSGTSASLAISGLQSEDEADYYCSSWDSDLRNWVFGGGTKLTVLR
notes: Full-length human IgG1 with L234A/L235A (pEE-HCLALA IgG1 vector) and CK light chain constant domain (pEE-CK), made in CHO-T cells; also called candidate 027
For B6, the “Response” value [1] was 0.017 nm and the “Fluorescent signal level (sample/background)” value [2] was 19.1.

B7: Antibody 01-030 (antibody, human IgG1, kappa, L234A L235A, V domains shown)
VH: EVQLVQSGGGLVQPGGSLRVSCAASGFSFSSGLMSWVRQAPGKGFEWVSGYNGGSDRAGFADSVEGRFTISRDNAKNTLYLQMNSLKPEDTAVYYCARYIANSGTYYWDYWGQGTLVTVSS
VL: QSALTQPPSASGTPGQRVTISCSGSISNIGSNTVNWYQHLPGTAPKLLIYNHNQRPSGVPDRFSGSTSGTSASLAISGLQSEDEADYFCATWDDSLSAWLFGGGTKLTVLR
notes: Full-length human IgG1 with L234A/L235A (pEE-HCLALA IgG1 vector) and CK light chain constant domain (pEE-CK), made in CHO-T cells; also called candidate 030
For B7, the “Response” value [1] was -0.0066 nm and the “Fluorescent signal level (sample/background)” value [2] was 16.5.

B8: Antibody 01-006 (antibody, human IgG1, kappa, L234A L235A, V domains shown)
VH: EVQLVQSGGGLVQPGGSLRLSCSASGFTFSSGLMSWVRQAPGKGFEWVSGYNGGSDRAGYTDSVKGRFTISRDNAKNTLYLQMNSLKPEDTAVYYCARYIANSGTYYWDYWGQGTLVTVSS
VL: QAVLTQPPSVSGTPGQRVTISCSGSTSNIGHRTVNWYQQFPGAAPKLLIYRNNQRPSGVPARFSGSKSGTSASLAISGLQSEDEADYHCAAWDDSLTAWVFGGGTQLTVLR
notes: Full-length human IgG1 with L234A/L235A (pEE-HCLALA IgG1 vector) and CK light chain constant domain (pEE-CK), made in CHO-T cells; also called candidate 06
In the case of B8, the “Response” value [1] is reported as 0.0464 nm and the “Fluorescent signal level (sample/background)” value [2] is reported as 9.61.

B9: Antibody 01-025 (antibody, human IgG1, kappa, L234A L235A, V domains shown)
VH: EVQLVQSGGGLVQSGGSLRVSCAASGFTFSSGLMSWVRQAPGKGFEWVSGYNGGSDRAGYTDSVKGRFTISRDNAKNTLYLQMNSLKPEDTAVYYCARYIANSGTYYWDYWGQGTTVTVSS
VL: QPVLTQPPSVSEAPRQRVTISCSGSSSNIGNNAVNWYQQLPGKAPKLLIYSTNQRPSGVPDRFSGSKSGTSASLAISGLQSEDEADYYCAAWDDRVSAWLFGGGTKLTVLR
notes: Full-length human IgG1 with L234A/L235A (pEE-HCLALA IgG1 vector) and CK light chain constant domain (pEE-CK), made in CHO-T cells; also called candidate 025
In the case of B9, the “Response” value [1] is reported as 0.0259 nm and the “Fluorescent signal level (sample/background)” value [2] is reported as 15.

B10: Antibody 01-024 (antibody, human IgG1, kappa, L234A L235A, V domains shown)
VH: EVQLVQSGGGLVQSGGSLRVSCAASGFTFSSGLMSWVRQAPGKGFEWVSCYNGGSDRAGYTDSVKGRFTISRDNAKNTLYLQMNSLKPEDTAVYYCARYIANSGTYYWDYWGQGTTVTVSS
VL: QAVLTQPPSASGTPGQRVSISCSGGISNIGSNIVNWYQHLPGTAPKLLIYSGNQRPSGVPDRFSGSKSGTSASLAISGLQSEDEADYYCSSWDSDLRNWVFGGGTKLTVLR
notes: Full-length human IgG1 with L234A/L235A (pEE-HCLALA IgG1 vector) and CK light chain constant domain (pEE-CK), made in CHO-T cells; also called candidate 024
B10 was tested, and the “Response” value [1] was 0.0151 nm and the “Fluorescent signal level (sample/background)” value [2] was 19.9.

B11: Antibody 01-022 (antibody, human IgG1, kappa, L234A L235A, V domains shown)
VH: EVQLVQSGGGLVQSGGSLRVSCAASGFTFSSGLMSWVRQAPGKGFEWVSGYNGGSDRAGYTDSVKGRFTISRDNAKNTLYLQMNSLKPEDTAVYYCARYIANSGTYYWDYWGQGTTVTVSS
VL: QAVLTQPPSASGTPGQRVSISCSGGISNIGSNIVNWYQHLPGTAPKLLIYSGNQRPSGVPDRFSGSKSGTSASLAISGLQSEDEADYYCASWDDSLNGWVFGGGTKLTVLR
notes: Full-length human IgG1 with L234A/L235A (pEE-HCLALA IgG1 vector) and CK light chain constant domain (pEE-CK), made in CHO-T cells; also called candidate 022
In the case of B11, the “Response” value [1] is reported as 0.013 nm and the “Fluorescent signal level (sample/background)” value [2] is reported as 9.57.

B12: Antibody 01-033 (antibody, human IgG1, kappa, L234A L235A, V domains shown)
VH: EVQLVQSGGGLVQPGGSLRLSCAASGFTFSSGLMSWVRQAPGGFEWVSGYNGGSDRAGFADSVEGRFTISRDNAKNTLYLQMNSLKPEDTAVYYCARYIANSGTYYWDYWGQGTTVTVSS
VL: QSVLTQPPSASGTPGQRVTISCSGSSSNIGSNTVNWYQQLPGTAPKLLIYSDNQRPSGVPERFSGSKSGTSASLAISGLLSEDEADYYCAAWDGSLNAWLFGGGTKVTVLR
notes: Full-length human IgG1 with L234A/L235A (pEE-HCLALA IgG1 vector) and CK light chain constant domain (pEE-CK), made in CHO-T cells; also called candidate 033
With B12 the “Response” value [1] was -0.0078 nm and the “Fluorescent signal level (sample/background)” value [2] was 14.7.
